From US6344321, “Nucleic acid ligands which bind to hepatocyte growth factor/scatter factor (HGF/SF) or its receptor c-met” (Gilead Sciences, Inc.)

What was measured:
Conditions in all cases: tags: R&D Systems
[1] = biological target: T1, HGF (hepatocyte growth factor/scatter factor) (UniProt P14210;P14210 P14210:32-494,P14210:495-728); experiment: filter; HBSMC, 37C; table cites SEQ 15, which is a template in the listing
Experimental: (§1) In binding reactions, RNA concentrations were kept as low as possible—between 1 and 20 pM—to ensure equilibrium in conditions of protein excess. Oligonucleotides were incubated for 15 minutes at 37° C. with varying amounts of the protein in 43 µl of the binding buffer. Thirty-two microliters of each binding mixture placed on pre-wet 0.45 µm nitrocellulose filters under suction. Each well was immediately washed with 0.5 ml binding buffer. The amount of radioactivity retained on the filters was quantitated by imaging. The radioactivity that bound to filters in the absence of protein was used for background correction. The percentage of input oligonucleotide retained on each filter spot was plotted against the corresponding log protein concentration. The nonlinear least square method was used to obtain the dissociation constant (K_d; reference Jellinek, Lynott et al. 1993, Proc. Natl. Acad. Sci. USA. 90:11227–31).

[2] = biological target: T1, HGF (hepatocyte growth factor/scatter …); experiment: filter; HBSMC, 37C; SEQ 43 in listing has a deviating 3' end
Experimental: as §1

[3] = biological target: T1, HGF (hepatocyte growth factor/scatter …); experiment: filter; 36mer; PEGylated form inhibits HGF in cells
Experimental: as §1

[4] = biological target: T1, HGF (hepatocyte growth factor/scatter …); experiment: filter; HBSMC, 37C; worse than random pool
Experimental: as §1

[5] = biological target: T1, HGF (hepatocyte growth factor/scatter …); experiment: filter; HBSMC, 37C; SEQ 108 in listing duplicates SEQ 107, table sequence used
Experimental: as §1

T1 sequence (P14210 32-494, chain 1 of 2): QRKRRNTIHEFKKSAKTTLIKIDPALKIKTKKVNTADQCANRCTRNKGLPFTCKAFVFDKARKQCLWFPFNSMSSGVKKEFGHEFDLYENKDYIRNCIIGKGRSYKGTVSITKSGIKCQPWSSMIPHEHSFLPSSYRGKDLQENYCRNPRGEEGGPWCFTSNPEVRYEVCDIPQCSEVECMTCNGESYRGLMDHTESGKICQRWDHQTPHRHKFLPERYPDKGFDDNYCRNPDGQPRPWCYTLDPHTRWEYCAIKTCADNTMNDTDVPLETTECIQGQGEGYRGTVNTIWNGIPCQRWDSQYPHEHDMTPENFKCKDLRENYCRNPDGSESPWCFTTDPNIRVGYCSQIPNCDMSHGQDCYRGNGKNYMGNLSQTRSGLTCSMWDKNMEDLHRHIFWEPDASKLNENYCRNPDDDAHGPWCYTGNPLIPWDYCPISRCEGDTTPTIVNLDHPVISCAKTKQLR
T1 sequence (P14210 495-728, chain 2 of 2): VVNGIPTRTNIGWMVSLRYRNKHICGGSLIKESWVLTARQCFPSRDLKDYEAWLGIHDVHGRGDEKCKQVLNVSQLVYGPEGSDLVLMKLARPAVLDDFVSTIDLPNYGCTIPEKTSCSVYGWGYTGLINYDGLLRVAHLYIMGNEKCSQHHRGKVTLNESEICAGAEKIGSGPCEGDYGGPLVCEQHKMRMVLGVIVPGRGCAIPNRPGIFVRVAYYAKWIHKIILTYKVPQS

B1: 8-117 (ssRNA)
RNA: GGGAGGACGAUGCGGUCCCAAGUUUCAGGGCGUUUCUUCCUCGUCCAGACGACUCGCCCGA
modifications: 2'-F pyrimidines
For B1, the Kd [1] was 0.13 nM.

B2: 11-106 (ssRNA)
RNA: GGGAGGACGAUGCGGCGAUGAUGCCUGUUUAUGUCGAUGUCCCCCCAGACGACUCGCCCGA
modifications: 2'-F pyrimidines
Work on B2 yielded a Kd [2] of 0.12 nM.

GGACGAUGCGGCGAGUGCCUGUUUAUGUCAUCGUCC (ssRNA, 2'-F pyrimidines; NX22354 formulation carries 5'-40K PEG and 3'-dT cap) [NX22354 (36mer of 8-102)] gave a Kd [3] of 0.1 nM.

B3: 8-151 (ssRNA)
RNA: GGGAGGACGAUGCGGAGGACUAAUCCCUAAGGAAUAGCUUGCCCGCAGACGACUCGCCCGA
modifications: 2'-F pyrimidines
For B3, the Kd [4] was 8 nM.

B4: 10-17 (ssRNA)
RNA: GGGAGAUAAGAAUAAACGCUCAAAACCCUGUUGGCGUGACGUCCCGACCCUCCUUCGACAGGAGGCUCACAACAGGC
modifications: 2'-F pyrimidines
For B4, the Kd [5] was 0.56 nM.
